From patent US20240368233A1 (University of Washington, published 2024)

How the values were obtained:
[1] = biological target: the molecule itself; assay: SEC titration of the C4 hub alone (normalised A230, concentrations per monomer) and negative-stain EM; self-association of hubs
LHD29 chainB [2] = biological target: T1, LHD29 chainB; assay: BLI, global kinetic fit, 1:1 model
T1 construct: also called LHD29B; 29B
T1 chain: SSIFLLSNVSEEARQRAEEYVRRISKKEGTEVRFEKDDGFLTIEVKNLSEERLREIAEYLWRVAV
Description: (§1) Biolayer interferometry experiments were performed on an OctetRED96 BLI system (ForteBio, Menlo Park, CA). Streptavidin coated biosensors were first equilibrated for at least 10 minutes in Octet buffer (10 mM HEPES pH 7.4, 150 mM NaCl, 3 mM EDTA, 0.05% Surfactant P20) supplemented with 1 mg/ml Bovine Serum Albumin (SigmaAldrich). Enzymatically biotinylated designs were immobilized onto the biosensors by dipping the biosensors into a solution with 10-50 nM protein for 30-120 s. This was followed by dipping in fresh octet buffer to establish a baseline for 120 s. Titration experiments were performed at 25° C. while rotating at 1,000 r.p.m. Association of designs was allowed by dipping biosensors in solutions containing designed protein diluted in octet buffer until equilibrium was approached followed by dissociation by dipping the biosensors into fresh buffer solution in order to monitor the dissociation kinetics. Steady-state and global kinetic fits were performed using the manufacturer's software (Data Analysis 9.1) assuming a 1:1 binding model.

[3] = biological target: the molecule itself; assay: BLI conditions (self-association)
LHD29 chainB [4] = biological target: T1, LHD29 chainB; assay: BLI, steady state fit
Description: as §1

202B57 = biological target: T2, 202B57; assay: SEC of mixed components; linear tetramer listed in Table 6, neighbours in the chain
T2 chain: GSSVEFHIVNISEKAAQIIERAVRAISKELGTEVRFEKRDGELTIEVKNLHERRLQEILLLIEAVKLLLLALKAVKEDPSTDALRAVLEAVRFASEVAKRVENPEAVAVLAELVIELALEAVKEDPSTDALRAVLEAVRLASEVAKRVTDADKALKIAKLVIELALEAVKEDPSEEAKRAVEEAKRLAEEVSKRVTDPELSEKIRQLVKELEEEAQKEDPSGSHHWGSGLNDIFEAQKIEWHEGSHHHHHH
Description: Complexes and individual components were diluted in 20 mM Tris pH 8.0, 100 mM NaCl. After o/n equilibration of the mixtures at room temperature or 4 degrees C., 500 ul of sample was injected onto a Superdex™ 200 10/300 increase GL (dimers, linear assemblies) or Superose™ 6 increase 10/300 GL (symmetric assemblies) (all columns from GE healthcare) using the absorbance at 230 nm or 473 nm (for GFP tagged components) as read-out. Dimers were mixed at monomer concentrations of 5 μM or higher. Trimer and ABCD tetramer mixtures contained 5 μM of the bivalent connector, and 7.5 μM of each terminal cap (lower absolute concentrations with the same ratios were used for some trimers). ABCA tetramer mixtures contained 5 μM per bivalent connector and 15 μM terminal cap. The hexamer mixture contained 3 μM of components C and D, 3.6 μM of B and E, and 4.4 μM of A and F. The branched assembly shown in FIG. 4A contained 2.8 μM of the trivalent connector and 4 μM of each cap. For the exchange experiment shown in FIG. 5A, the ABC trimer was preincubated at concentrations of 6 μM B and 9 μM each of A and C. C′ was then added to reach a final concentration of 2 μM B, 3 μM each of A and C, and 6 μM C′.

DFA0 = biological target: T3, DFA0; assay: SEC of mixed components; trimer listed in Table 6
T3 construct: Bivalent connector
T3 chain: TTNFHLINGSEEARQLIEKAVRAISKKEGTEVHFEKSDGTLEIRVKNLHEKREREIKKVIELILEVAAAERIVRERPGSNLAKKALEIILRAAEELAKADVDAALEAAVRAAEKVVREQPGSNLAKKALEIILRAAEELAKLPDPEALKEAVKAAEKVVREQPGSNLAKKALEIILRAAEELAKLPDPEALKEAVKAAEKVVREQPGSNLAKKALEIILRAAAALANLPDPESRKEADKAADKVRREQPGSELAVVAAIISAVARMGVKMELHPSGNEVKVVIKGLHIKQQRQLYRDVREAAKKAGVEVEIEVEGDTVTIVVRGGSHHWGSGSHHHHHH

LHD206 chainB [5] = biological target: T4, LHD206 chainB; assay: BLI, global kinetic fit, 1:1 model
T4 construct: also called LHD206B
T4 chain: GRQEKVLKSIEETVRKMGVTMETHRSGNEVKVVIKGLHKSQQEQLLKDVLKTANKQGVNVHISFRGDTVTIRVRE
Description: as §1

LHD206 chainB [6] = biological target: T4, LHD206 chainB; assay: BLI, steady state fit
Description: as §1

LHD101 B8 = biological target: T5, LHD101 B8; assay: SEC binding assay (Superdex 200, normalised A230) of A, B and the mixture AB
T5 single chain, LHD101 chain B fused to DHR8: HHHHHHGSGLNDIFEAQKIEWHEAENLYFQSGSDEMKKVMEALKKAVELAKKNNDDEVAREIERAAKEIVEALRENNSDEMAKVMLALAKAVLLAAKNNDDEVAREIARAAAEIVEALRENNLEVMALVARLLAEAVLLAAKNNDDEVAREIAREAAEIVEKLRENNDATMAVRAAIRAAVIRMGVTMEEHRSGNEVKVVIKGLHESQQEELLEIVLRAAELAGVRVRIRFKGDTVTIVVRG

101B14 = biological target: T6, 101B14; assay: as above
T6 construct: also called LHD101 B14
T6 single chain, LHD101 chain B fused to DHR14: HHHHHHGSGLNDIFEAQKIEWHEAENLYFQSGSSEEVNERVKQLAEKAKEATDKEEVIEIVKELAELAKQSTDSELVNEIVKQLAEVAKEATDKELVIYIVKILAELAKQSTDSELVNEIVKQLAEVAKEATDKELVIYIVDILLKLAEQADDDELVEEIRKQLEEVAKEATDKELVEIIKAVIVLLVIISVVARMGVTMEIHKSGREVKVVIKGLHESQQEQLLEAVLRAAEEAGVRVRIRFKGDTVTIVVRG

101B82 = biological target: T7, 101B82; assay: as above
T7 chain: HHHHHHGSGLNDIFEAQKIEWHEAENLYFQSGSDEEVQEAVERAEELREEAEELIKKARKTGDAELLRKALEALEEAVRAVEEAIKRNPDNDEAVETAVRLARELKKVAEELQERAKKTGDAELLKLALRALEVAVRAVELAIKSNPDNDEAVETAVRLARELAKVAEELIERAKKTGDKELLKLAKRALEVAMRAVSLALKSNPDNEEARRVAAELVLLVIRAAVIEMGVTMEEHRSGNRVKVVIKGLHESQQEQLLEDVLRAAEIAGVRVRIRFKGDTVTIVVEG

101B62 = biological target: T8, 101B62; assay: as above
T8 construct: also called LHD101B62
T8 chain: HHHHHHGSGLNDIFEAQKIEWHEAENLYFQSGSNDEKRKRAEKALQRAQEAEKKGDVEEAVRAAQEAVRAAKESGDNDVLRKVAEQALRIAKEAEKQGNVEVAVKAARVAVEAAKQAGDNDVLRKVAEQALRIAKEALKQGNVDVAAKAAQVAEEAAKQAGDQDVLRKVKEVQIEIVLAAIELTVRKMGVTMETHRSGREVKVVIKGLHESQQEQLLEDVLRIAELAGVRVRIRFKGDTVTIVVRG

[7] = biological target: the molecule itself; assay: SEC titration of the protomer alone at several injection concentrations (Superdex 200, normalised A230); self-association
DF284B = biological target: T9, DF284B; assay: SEC of mixed components; trimer listed in Table 6
T9 construct: Bivalent connector
T9 chain: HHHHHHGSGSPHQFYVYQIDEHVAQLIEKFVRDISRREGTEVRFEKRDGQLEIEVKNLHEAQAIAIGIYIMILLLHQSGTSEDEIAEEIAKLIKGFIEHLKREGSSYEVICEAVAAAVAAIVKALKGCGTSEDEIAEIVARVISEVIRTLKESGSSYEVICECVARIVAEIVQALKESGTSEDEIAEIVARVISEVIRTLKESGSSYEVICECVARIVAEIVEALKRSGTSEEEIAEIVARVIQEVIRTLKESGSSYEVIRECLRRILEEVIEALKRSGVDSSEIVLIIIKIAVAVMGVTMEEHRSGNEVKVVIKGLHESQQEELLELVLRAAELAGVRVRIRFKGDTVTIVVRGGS

B1: C4-Hub (designed binder)
chain: GNTHFIVVHGSEDAAQLAEELVREISKKEGTEVRFEKKDGLLSIEVKNLSEERQREIQKALQLVQDVANAERVVRERPGSNLAKKALEIILRAAEELAKLDLKASLKAAVRAAEKVVREQPGSELAKKALEIILRAAEELAKLPDPEALHEAVRAAEHVVRSQPGSEAAKEALRIIQEAAELLKESPDPTAIIRAARALLKIARTTGDEEAAKEAIEAAKKAADLARERGDDELVCEALALLVAAQVELLKQQGTSAVEIAKIVARVISEVIRTLKEKGSSYEVICECVARIVAEIVEALKRSGTSAAIIALIVALVISEVIRTLKESGSSFEVILECVIRIVLEIIEALKRSGTSEQDVMLIVMAVLLVVLATLQLSGSGSLEHHHHHH
notes: C4-symmetric homo-oligomeric hub carrying LHD274B; also called C4 53; C4-symmetric hub
binding result [1]: binds

B2: LHD29 chainA (designed binder)
chain: TWQWVLINISEEARQRIEEYVRRISKKEGTEVHFEKDDGVLHIRVKNLHEKRAREIHEYAKRVIL
notes: also called LHD29A; 29A
Kd (LHD29 chainB [2]): 985 nM | koff (LHD29 chainB [2]): 0.00068 s⁻¹ | kon (LHD29 chainB [2]): 690 M⁻¹ s⁻¹ | binding result [3]: binds | Kd (LHD29 chainB [4]): 310 nM

B3: DF202 (designed binder)
chain: NTHFIVVHGTEEARQLAEEIVRLIAEALGTEVRFEKKDGLLSIEVKNLPEEAQRLIQKLLQLAVRIAQAAKSGDNDQLRELAEDALRLAKEAEKLGDLGAAAVAARLAVEAAKQAGDNDVLRKVAEQALRIAKEAEKQGLVDVAVEAARVAVEAAKQAGDNDVLRKVAEQALRIAKEAEKQGNVEVAVKAARVAVEAAKQAGDNDVLRKVAEQALRIVREALKQGNKEVAKKALEVAIEAANQAGDQKLLAEILLLAIEVLVVEMGVTMETHKSGNKVKVVIKGLHESQQETLRKLVHELLRKLGVVAVTQKHGDTVTIYVTEGGSHHWGSGSHHHHHH
notes: Bivalent connector
binding result (202B57): binds | binding result (DFA0): binds

B4: LHD206 chainA (designed binder)
chain: TDELLERLRQLFEELHERGTEIVVEVHINGRKTEIEVQGIDKRLLKIILEVIREEIEREGSSEVEVNVHSGGQTWTFNEK
notes: also called LHD206A
Kd (LHD206 chainB [5]): 2.8 nM | koff (LHD206 chainB [5]): 0.00075 s⁻¹ | kon (LHD206 chainB [5]): 270000 M⁻¹ s⁻¹ | Kd (LHD206 chainB [6]): 8.4 nM

B5: 101A53 (designed binder)
chain: HHHHHHGSGLNDIFEAQKIEWHEAENLYFQSGSNDEKEKLKELLKRAEELAKSPDPEDLKEAVRLAEEVVRERPGSNLAKKALEIILRAAEELAKLPDPEALKEAVKAAEKVVREQPGSNLAKKALEIILRAAAALANLPDPESRKEADKAADKVRREQPGSELAVVAAIISAVARMGVKMELHPSGNEVKVVIKGLHIKQQRQLYRDVREAAKKAGVEVEIEVEGDTVTIVVRG
notes: also called LHD101A53
binding result (LHD101 B8): binds | binding result (101B14): binds | binding result (101B82): binds | binding result (101B62): binds | binding result [7]: no binding | binding result (DF284B): binds
